Biological target: T1, IRAK4 (Homo sapiens, UniProt Q9NWZ3)
T1 sequence (Q9NWZ3 1-460): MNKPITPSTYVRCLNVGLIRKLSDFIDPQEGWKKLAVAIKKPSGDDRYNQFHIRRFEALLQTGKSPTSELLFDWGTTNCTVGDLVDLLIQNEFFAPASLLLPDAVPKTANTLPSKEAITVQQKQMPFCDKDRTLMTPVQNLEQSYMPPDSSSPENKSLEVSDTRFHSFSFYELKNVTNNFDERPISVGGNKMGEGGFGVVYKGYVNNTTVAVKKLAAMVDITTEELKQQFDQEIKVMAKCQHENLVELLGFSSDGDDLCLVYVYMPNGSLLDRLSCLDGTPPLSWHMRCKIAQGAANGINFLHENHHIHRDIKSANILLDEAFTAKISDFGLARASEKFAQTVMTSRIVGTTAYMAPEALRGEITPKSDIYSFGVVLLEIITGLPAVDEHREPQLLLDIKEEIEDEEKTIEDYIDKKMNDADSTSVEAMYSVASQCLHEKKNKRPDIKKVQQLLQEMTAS
Test: mRNA display affinity selection against IRAK4, NGS abundance
Assay type: binding
Design: acids 1-460; NP_057207.2) was purchased from Carna Biosciences; purchased Carna Biosciences (Kobe, Japan)
Conditions: Top100 selection hits, NGS

Row | Sequence | Library fraction (IRAK4 selection pulldown (+)) | Raw reads (IRAK4 selection pulldown (+)) | Library fraction (IRAK4 selection pulldown (-)) | Raw reads (IRAK4 selection pulldown (-))
1 | ALLWRRRNYH | 0.0006 | 61 | 0.00021 | 28
2 | AMLWKRRLWR | 0.0005 | 57 | 0.00051 | 68
3 | AMRWRNRCYK | 0.0001 | 14 | – | –
4 | AMSLYWARRRPH | 0.0028 | 304 | 0.00857 | 1144
5 | AQRWRQKCYK | 0.0002 | 19 | – | –
6 | AQRWRRRCYH | 0.0008 | 85 | 0.00051 | 68
7 | AQYWKRRLWR | 0.0001 | 9 | – | –
8 | ARLWRRRIYQ | 0.0001 | 11 | 0.00049 | 66
9 | CQCWNRRNWT | 0.0003 | 35 | 0.00037 | 49
10 | CQRIGRRNYS | – | – | 0.0001 | 14
11 | CQRWKRRCYM | 0.0007 | 76 | 0.00053 | 71
12 | GMKRQFITWHWT | – | – | 7e-5 | 10
13 | GPILYNRRLFV | 0.0002 | 21 | 0.00014 | 19
14 | GPLLWNTRIYC | 0.0001 | 14 | – | –
15 | GPVIYNRRIYC | 0.0001 | 11 | 0.00021 | 28
16 | MMLWKRRMYK | 0.0001 | 15 | – | –
17 | RILWRRRRYH | 0.0009 | 95 | 0.00044 | 59
18 | RLCWKRRNWT | 0.0004 | 47 | 0.00044 | 59
19 | RLCYKRRNWQ | – | – | 0.00013 | 17
20 | RLFWKRRRYA | 0.0004 | 42 | 0.00016 | 21
21 | RLLWKHRLYA | – | – | 8e-5 | 11
22 | RLLWKRRNYQ | 0.0002 | 25 | 0.00025 | 33
23 | RLLWRRRNYA | 0.0009 | 98 | 0.00106 | 142
24 | RMLWKRRMWH | 0.0011 | 118 | 0.00041 | 55
25 | RQRWRGRKYH | 0.0001 | 8 | 0.00011 | 15
26 | RQRWRSRDYA | – | – | 8e-5 | 11
27 | RTFWRRRRYH | 0.0004 | 44 | 0.00039 | 52

Row | Sequence | Library fraction (IRAK4 selection pulldown (+)) | Raw reads (IRAK4 selection pulldown (+)) | Library fraction (IRAK4 selection pulldown (-)) | Raw reads (IRAK4 selection pulldown (-))
28 | RTRWKCKMYH | 0.0002 | 20 | – | –
29 | RTYWKRRCYA | 0.0076 | 814 | 0.00332 | 444
30 | RVLWKKRNYA | 0.0004 | 46 | 0.00019 | 26
31 | SARWRRRNYS | – | – | 0.00011 | 15
32 | SIFWRRRIYK | 0.002 | 228 | 0.00048 | 64
33 | SILWKKHIYK | 0.0035 | 369 | 0.00093 | 124
34 | SILWKKRVWK | 0.016 | 1700 | 0.009 | 1218
35 | SIMWKRRVFK | 0.0001 | 9 | 8e-5 | 11
36 | SIVWKRRIYR | 0.005 | 541 | 0.00216 | 289
37 | SIYWKRRRYK | 0.0001 | 11 | – | –
38 | SLLWHRRIYC | 0.0002 | 19 | – | –
39 | SLLWKKRMYK | 0.0009 | 95 | 0.00027 | 36
40 | SLLWKQRVWK | 0.005 | 525 | 0.00324 | 433
41 | SLLWKRRCYN | 0.0038 | 409 | 0.00172 | 230
42 | SLLWKRRICR | 0.0006 | 65 | 0.00016 | 21
43 | SLLWKRRIMK | 0.180 | 19248 | 0.066 | 8762
44 | SLLWKRRMMK | 0.0001 | 11 | – | –
45 | SLLWKRRVYC | 0.0007 | 78 | 0.00057 | 76
46 | SLLWKRRVYT | 0.0002 | 17 | 0.0001 | 14
47 | SLLWRKRIYR | 0.003 | 312 | 0.00109 | 146
48 | SLLWRRRVYK | 0.080 | 8519 | 0.046 | 6174
49 | SLLYKRRIYK | 0.044 | 4704 | 0.026 | 3431
50 | SLRWKNRNHK | 0.0006 | 62 | 0.00013 | 17
51 | SLRWKRRIWS | – | – | 9e-5 | 12
52 | SLYWKSRIWR | 0.0026 | 283 | 0.00072 | 96
53 | SMERKAITWLWT | – | – | 0.00019 | 25
54 | SMERQFITWHWT | – | – | 0.00013 | 17

Row | Sequence | Library fraction (IRAK4 selection pulldown (+)) | Raw reads (IRAK4 selection pulldown (+)) | Library fraction (IRAK4 selection pulldown (-)) | Raw reads (IRAK4 selection pulldown (-))
55 | SMHRRYITWRWT | – | – | 0.115 | 15412
56 | SMKRKFITWHWT | – | – | 7e-5 | 10
57 | SMKRPFITWHWT | – | – | 9e-5 | 12
58 | SMKRQFITRHWT | – | – | 7e-5 | 9
59 | SMKRQFITWHWT | – | – | 0.376 | 50248
60 | SMKRQFITWRWT | – | – | 0.00015 | 20
61 | SMKRQLITWHWT | – | – | 0.00037 | 50
62 | SMKRRFITWHWT | – | – | 8e-5 | 11
63 | SMLFKRRIYK | 0.211 | 22521 | 0.165 | 22079
64 | SMLFKRRIYR | 0.0001 | 15 | – | –
65 | SMLFKRRMYK | 0.0003 | 27 | 0.00019 | 26
66 | SMLFKRRVYK | 0.0001 | 10 | – | –
67 | SMLWGRRIYR | 0.0016 | 168 | 0.00036 | 48
68 | SMLWKRKIWG | 0.0047 | 498 | 0.00177 | 237
69 | SMLWKRRICI | 0.0002 | 17 | – | –
70 | SMLWRRRKYA | 0.0001 | 16 | 7e-5 | 10
71 | SMQRKTIHWKWT | – | – | 0.00109 | 145
72 | SMQRRVIKWTWA | – | – | 0.00016 | 21
73 | SMRRQFITWHWT | – | – | 9e-5 | 12
74 | SQLCHRRIYK | 0.0001 | 12 | – | –
75 | SQLWNRRLYK | 0.0009 | 93 | 0.00059 | 79
76 | SQLYKRRIWM | 0.0001 | 9 | – | –
77 | SQLYKRRIYQ | 0.0003 | 37 | 0.00027 | 36
78 | SQRWRCRNYQ | 0.0011 | 116 | 0.002 | 267
79 | SQRWRNRNYR | 0.013 | 1364 | 0.010 | 1401
80 | SQRYKQRCYK | 0.0017 | 182 | 0.0012 | 160

Source: PMC10683472, “Deep Learning-Driven Library Design for the De Novo Discovery of Bioactive Thiopeptides” (ACS Central Science, 2023)
